Values of other authors in US20210265014A1, “METHOD AND ELECTRONIC SYSTEM FOR PREDICTING AT LEAST ONE FITNESS VALUE OF A PROTEIN VIA AN EXTENDED NUMERICAL SEQUENCE, RELATED COMPUTER PROGRAM PRODUCT” (PEACCEL, priority 2018, published 2021).

T1: Glucagon like peptide-2 (GLP-2) receptor (Rattus norvegicus, UniProt Q9Z0W0)
T1 sequence (Q9Z0W0 1-550): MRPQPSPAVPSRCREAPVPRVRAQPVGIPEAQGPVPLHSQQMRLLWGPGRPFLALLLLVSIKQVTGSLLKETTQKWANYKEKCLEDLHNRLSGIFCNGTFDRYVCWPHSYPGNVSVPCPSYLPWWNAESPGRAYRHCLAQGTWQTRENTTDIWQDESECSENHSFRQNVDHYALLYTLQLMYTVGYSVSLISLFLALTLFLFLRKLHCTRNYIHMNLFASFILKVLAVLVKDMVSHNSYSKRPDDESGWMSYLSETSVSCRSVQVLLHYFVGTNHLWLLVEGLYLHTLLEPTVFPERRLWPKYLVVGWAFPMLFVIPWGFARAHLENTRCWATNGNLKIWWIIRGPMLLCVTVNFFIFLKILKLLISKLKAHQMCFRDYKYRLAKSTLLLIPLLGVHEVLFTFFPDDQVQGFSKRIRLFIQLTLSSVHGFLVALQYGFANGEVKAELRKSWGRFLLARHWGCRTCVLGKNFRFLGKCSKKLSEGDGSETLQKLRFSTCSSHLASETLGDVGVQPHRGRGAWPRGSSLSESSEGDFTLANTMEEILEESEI


Molecular target: T1, Glucagon like peptide-2 (GLP-2) receptor
Settings: receptor activation, fold increase over basal cAMP production

| fold-increase in cAMP [fold] | Molecule |
| --- | --- |
| 0.78 | M10A: alanine variant of Glucagon like peptide-2 (GLP-2) (HADGSFSDEANTILDNLAARDFINWLIQTKITD; Glucagon-like peptide 2; UniProt P01275 146-178, looked up, variant M10A) [Chimera M10A] |
| 10.00 | N24A: alanine variant of Glucagon like peptide-2 (GLP-2) (HADGSFSDEMNTILDNLAARDFIAWLIQTKITD; Glucagon-like peptide 2; UniProt P01275 146-178, looked up, variant N24A) [Chimera N24A] |
| 0.84 | T32A: alanine variant of Glucagon like peptide-2 (GLP-2) (HADGSFSDEMNTILDNLAARDFINWLIQTKIAD; Glucagon-like peptide 2; UniProt P01275 146-178, looked up, variant T32A) [Chimera T32A] |
| 1.37 | W25A: alanine variant of Glucagon like peptide-2 (GLP-2) (HADGSFSDEMNTILDNLAARDFINALIQTKITD; Glucagon-like peptide 2; UniProt P01275 146-178, looked up, variant W25A) [Chimera W25A] |
| 7.65 | N11A: alanine variant of Glucagon like peptide-2 (GLP-2) (HADGSFSDEMATILDNLAARDFINWLIQTKITD; Glucagon-like peptide 2; UniProt P01275 146-178, looked up, variant N11A) [Chimera N11A] |
| 7.59 | S7A: alanine variant of Glucagon like peptide-2 (GLP-2) (HADGSFADEMNTILDNLAARDFINWLIQTKITD; Glucagon-like peptide 2; UniProt P01275 146-178, looked up, variant S7A) [Chimera S7A] |
| 5.92 | N16A: alanine variant of Glucagon like peptide-2 (GLP-2) (HADGSFSDEMNTILDALAARDFINWLIQTKITD; Glucagon-like peptide 2; UniProt P01275 146-178, looked up, variant N16A) [Chimera N16A] |
| 4.00 | S5A: alanine variant of Glucagon like peptide-2 (GLP-2) (HADGAFSDEMNTILDNLAARDFINWLIQTKITD; Glucagon-like peptide 2; UniProt P01275 146-178, looked up, variant S5A) [Chimera S5A] |

The remaining lines, values behind:

| Molecule | fold-increase in cAMP [fold] |
| --- | --- |
| G4A: alanine variant of Glucagon like peptide-2 (GLP-2) (HADASFSDEMNTILDNLAARDFINWLIQTKITD; Glucagon-like peptide 2; UniProt P01275 146-178, looked up, variant G4A) [Chimera G4A] | 2.87 |
| I27A: alanine variant of Glucagon like peptide-2 (GLP-2) (HADGSFSDEMNTILDNLAARDFINWLAQTKITD; Glucagon-like peptide 2; UniProt P01275 146-178, looked up, variant I27A) [Chimera I27A] | 5.02 |
| I13A: alanine variant of Glucagon like peptide-2 (GLP-2) (HADGSFSDEMNTALDNLAARDFINWLIQTKITD; Glucagon-like peptide 2; UniProt P01275 146-178, looked up, variant I13A) [Chimera I13A] | 2.45 |
| F6A: alanine variant of Glucagon like peptide-2 (GLP-2) (HADGSASDEMNTILDNLAARDFINWLIQTKITD; Glucagon-like peptide 2; UniProt P01275 146-178, looked up, variant F6A) [Chimera F6A] | 1.67 |
| A2G: variant of Glucagon like peptide-2 (GLP-2) [Chimera A2G] | 10.00 |
| E9A: alanine variant of Glucagon like peptide-2 (GLP-2) (HADGSFSDAMNTILDNLAARDFINWLIQTKITD; Glucagon-like peptide 2; UniProt P01275 146-178, looked up, variant E9A) [Chimera E9A] | 3.76 |
| F22A: alanine variant of Glucagon like peptide-2 (GLP-2) (HADGSFSDEMNTILDNLAARDAINWLIQTKITD; Glucagon-like peptide 2; UniProt P01275 146-178, looked up, variant F22A) [Chimera F22A] | 1.61 |
| K30A: alanine variant of Glucagon like peptide-2 (GLP-2) (HADGSFSDEMNTILDNLAARDFINWLIQTAITD; Glucagon-like peptide 2; UniProt P01275 146-178, looked up, variant K30A) [Chimera K30A] | 0.84 |
| D33A: alanine variant of Glucagon like peptide-2 (GLP-2) (HADGSFSDEMNTILDNLAARDFINWLIQTKITA; Glucagon-like peptide 2; UniProt P01275 146-178, looked up, variant D33A) [Chimera D33A] | 3.41 |
| I23A: alanine variant of Glucagon like peptide-2 (GLP-2) (HADGSFSDEMNTILDNLAARDFANWLIQTKITD; Glucagon-like peptide 2; UniProt P01275 146-178, looked up, variant I23A) [Chimera I23A] | 2.57 |

System: not given
Settings: enantioselectivity as ΔΔG‡=−RT ln(E), Aspergillus niger epoxide hydrolase

| Molecule | ΔΔG values [kcal/mol] |
| --- | --- |
| L215 F_A217N_R219S_L249Y_T317W_T318V_C350V: epoxide hydrolase mutant from Aspergillus niger (protein) NHKAFAKFPSSASISPNPFTVSIPDEQLDDLKTLVRLSKIAPPTYESLQADGRFGITSEWLTTMREKWLSEFDWRPFEARLNSFPQFTTEIEGLTIHFAALFSEREDAVPIALLHGWPGSFVEFYPILQLFREEYTPETLPFHLVVPSLPGYTFSSGPPLDKDFGLMDNARVVDQLMKDLGFGSGYIIQGGDIGSFVGRLLGVGFDACKAVHLNLCNMSAPPEGPSIESLSAAEKEGIARMEKFMTDGYAYAMEHSTRPSTIGHVLSSSPIALLAWIGEKYLQWVDKPLPSETILEMVSLYWLTESFPRAIHTYREWVPTASAPNGATMLQKELYIHKPFGFSFFPKDLVPVPRSWIATTGNLVFFRDHAEGGHFAALERPRELKTDLTAFVEQVWQK | -2.73 |
| WT: WT epoxide hydrolase sequence from Aspergillus niger (protein, Aspergillus niger) NHKAFAKFPSSASISPNPFTVSIPDEQLDDLKTLVRLSKIAPPTYESLQADGRFGITSEWLTTMREKWLSEFDWRPFEARLNSFPQFTTEIEGLTIHFAALFSEREDAVPIALLHGWPGSFVEFYPILQLFREEYTPETLPFHLVVPSLPGYTFSSGPPLDKDFGLMDNARVVDQLMKDLGFGSGYIIQGGDIGSFVGRLLGVGFDACKAVHLNLCAMRAPPEGPSIESLSAAEKEGIARMEKFMTDGLAYAMEHSTRPSTIGHVLSSSPIALLAWIGEKYLQWVDKPLPSETILEMVSLYWLTESFPRAIHTYRETTPTASAPNGATMLQKELYIHKPFGFSFFPKDLCPVPRSWIATTGNLVFFRDHAEGGHFAALERPRELKTDLTAFVEQVWQK | -0.85 |

Same assay, conditions: enantioselectivity, Aspergillus niger epoxide hydrolase, glycidyl phenyl ether

| Molecule | E-value |
| --- | --- |
| L215 F_A217N_R219S_L249Y_T317W_T318V_C350V: epoxide hydrolase mutant from Aspergillus niger (protein) NHKAFAKFPSSASISPNPFTVSIPDEQLDDLKTLVRLSKIAPPTYESLQADGRFGITSEWLTTMREKWLSEFDWRPFEARLNSFPQFTTEIEGLTIHFAALFSEREDAVPIALLHGWPGSFVEFYPILQLFREEYTPETLPFHLVVPSLPGYTFSSGPPLDKDFGLMDNARVVDQLMKDLGFGSGYIIQGGDIGSFVGRLLGVGFDACKAVHLNLCNMSAPPEGPSIESLSAAEKEGIARMEKFMTDGYAYAMEHSTRPSTIGHVLSSSPIALLAWIGEKYLQWVDKPLPSETILEMVSLYWLTESFPRAIHTYREWVPTASAPNGATMLQKELYIHKPFGFSFFPKDLVPVPRSWIATTGNLVFFRDHAEGGHFAALERPRELKTDLTAFVEQVWQK | 93.2 |
| WT: WT epoxide hydrolase sequence from Aspergillus niger (protein, Aspergillus niger) NHKAFAKFPSSASISPNPFTVSIPDEQLDDLKTLVRLSKIAPPTYESLQADGRFGITSEWLTTMREKWLSEFDWRPFEARLNSFPQFTTEIEGLTIHFAALFSEREDAVPIALLHGWPGSFVEFYPILQLFREEYTPETLPFHLVVPSLPGYTFSSGPPLDKDFGLMDNARVVDQLMKDLGFGSGYIIQGGDIGSFVGRLLGVGFDACKAVHLNLCAMRAPPEGPSIESLSAAEKEGIARMEKFMTDGLAYAMEHSTRPSTIGHVLSSSPIALLAWIGEKYLQWVDKPLPSETILEMVSLYWLTESFPRAIHTYRETTPTASAPNGATMLQKELYIHKPFGFSFFPKDLCPVPRSWIATTGNLVFFRDHAEGGHFAALERPRELKTDLTAFVEQVWQK | 4 |
